T1: human NMI (N-myc Interacting protein), recombinant protein (human, UniProt Q13287 1-307, limits assumed)
T1 construct: Gene ID: 9111; also called hNMI; antigen
T1 sequence (looked up): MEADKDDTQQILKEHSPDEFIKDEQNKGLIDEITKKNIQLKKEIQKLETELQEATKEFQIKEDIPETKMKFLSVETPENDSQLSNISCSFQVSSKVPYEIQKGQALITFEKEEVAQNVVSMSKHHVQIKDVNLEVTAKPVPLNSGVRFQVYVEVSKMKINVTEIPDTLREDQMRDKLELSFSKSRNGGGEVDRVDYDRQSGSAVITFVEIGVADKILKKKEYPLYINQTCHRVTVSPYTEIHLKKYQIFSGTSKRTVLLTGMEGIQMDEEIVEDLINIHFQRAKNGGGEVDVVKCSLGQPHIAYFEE


Legend:
[1] = target: T1, human NMI (N-myc Interacting protein), …; assay: ELISA, binding to hNMI
[2] = target: T1, human NMI (N-myc Interacting protein), …; assay: ELISA EC50 against parent 98G10

| Binder | EC50 [1] [µg/mL] | Fold decrease in affinity [2] [fold] |
| --- | --- | --- |
| 98G10-H-1 (antibody, V domains shown, also called 98G10 W34H (VH)) VH: QEQLEESGGDLVKPEGSLTLTCTASGFSFSASYHICWVRQAPGKGLEWIACIYGGSSGSAYYASWAKGRFTISKTSSTTVTLQMTSLTAADTATYFCARAGYYNYGSAGDIYPSSFKLWGPGTLVTVSS VL: DIVMTQTPASVEAAVGGTVTINCQASQSISTALAWYQQKPGQPPKLLIYTASKVASGVPSRFSGSGSGTQFTLTISDLECADAATYYCQNYYYSSSSITFGGGTEVVVK | 0.024 | 0.77 |
| 98G10-H-7 (antibody, V domains shown, also called 98G10 W34R, Y112R (VH)) VH: QEQLEESGGDLVKPEGSLTLTCTASGFSFSASYRICWVRQAPGKGLEWIACIYGGSSGSAYYASWAKGRFTISKTSSTTVTLQMTSLTAADTATYFCARAGYYNYGSAGDIRPSSFKLWGPGTLVTVSS VL: DIVMTQTPASVEAAVGGTVTINCQASQSISTALAWYQQKPGQPPKLLIYTASKVASGVPSRFSGSGSGTQFTLTISDLECADAATYYCQNYYYSSSSITFGGGTEVVVK | 1.56 | 50.4 |
| 98G10-H-12 (antibody, V domains shown, also called 98G10 W34H, Y112S (VH)) VH: QEQLEESGGDLVKPEGSLTLTCTASGFSFSASYHICWVRQAPGKGLEWIACIYGGSSGSAYYASWAKGRFTISKTSSTTVTLQMTSLTAADTATYFCARAGYYNYGSAGDISPSSFKLWGPGTLVTVSS VL: DIVMTQTPASVEAAVGGTVTINCQASQSISTALAWYQQKPGQPPKLLIYTASKVASGVPSRFSGSGSGTQFTLTISDLECADAATYYCQNYYYSSSSITFGGGTEVVVK | 0.081 | 2.61 |
| 98G10-H-5 (antibody, V domains shown, also called 98G10 Y112E (VH)) VH: QEQLEESGGDLVKPEGSLTLTCTASGFSFSASYWICWVRQAPGKGLEWIACIYGGSSGSAYYASWAKGRFTISKTSSTTVTLQMTSLTAADTATYFCARAGYYNYGSAGDIEPSSFKLWGPGTLVTVSS VL: DIVMTQTPASVEAAVGGTVTINCQASQSISTALAWYQQKPGQPPKLLIYTASKVASGVPSRFSGSGSGTQFTLTISDLECADAATYYCQNYYYSSSSITFGGGTEVVVK | 1.85 | 59.7 |
| 98G10-H-11 (antibody, V domains shown, also called 98G10 W34H, Y112R (VH)) VH: QEQLEESGGDLVKPEGSLTLTCTASGFSFSASYHICWVRQAPGKGLEWIACIYGGSSGSAYYASWAKGRFTISKTSSTTVTLQMTSLTAADTATYFCARAGYYNYGSAGDIRPSSFKLWGPGTLVTVSS VL: DIVMTQTPASVEAAVGGTVTINCQASQSISTALAWYQQKPGQPPKLLIYTASKVASGVPSRFSGSGSGTQFTLTISDLECADAATYYCQNYYYSSSSITFGGGTEVVVK | 0.026 | 0.84 |
| 98G10-H-10 (antibody, V domains shown, also called 98G10 W34T, Y112R (VH)) VH: QEQLEESGGDLVKPEGSLTLTCTASGFSFSASYTICWVRQAPGKGLEWIACIYGGSSGSAYYASWAKGRFTISKTSSTTVTLQMTSLTAADTATYFCARAGYYNYGSAGDIRPSSFKLWGPGTLVTVSS VL: DIVMTQTPASVEAAVGGTVTINCQASQSISTALAWYQQKPGQPPKLLIYTASKVASGVPSRFSGSGSGTQFTLTISDLECADAATYYCQNYYYSSSSITFGGGTEVVVK | 1.86 | 60 |
| 98G10-H-6 (antibody, V domains shown, also called 98G10 Y112Q (VH)) VH: QEQLEESGGDLVKPEGSLTLTCTASGFSFSASYWICWVRQAPGKGLEWIACIYGGSSGSAYYASWAKGRFTISKTSSTTVTLQMTSLTAADTATYFCARAGYYNYGSAGDIQPSSFKLWGPGTLVTVSS VL: DIVMTQTPASVEAAVGGTVTINCQASQSISTALAWYQQKPGQPPKLLIYTASKVASGVPSRFSGSGSGTQFTLTISDLECADAATYYCQNYYYSSSSITFGGGTEVVVK | 0.092 | 2.97 |
| 98G10-H-14 (antibody, V domains shown, also called 98G10 W34D, Y112S (VH)) VH: QEQLEESGGDLVKPEGSLTLTCTASGFSFSASYDICWVRQAPGKGLEWIACIYGGSSGSAYYASWAKGRFTISKTSSTTVTLQMTSLTAADTATYFCARAGYYNYGSAGDISPSSFKLWGPGTLVTVSS VL: DIVMTQTPASVEAAVGGTVTINCQASQSISTALAWYQQKPGQPPKLLIYTASKVASGVPSRFSGSGSGTQFTLTISDLECADAATYYCQNYYYSSSSITFGGGTEVVVK | 1.49 | 48.1 |
| 98G10-H-13 (antibody, V domains shown, also called 98G10 W34K, Y112S (VH)) VH: QEQLEESGGDLVKPEGSLTLTCTASGFSFSASYKICWVRQAPGKGLEWIACIYGGSSGSAYYASWAKGRFTISKTSSTTVTLQMTSLTAADTATYFCARAGYYNYGSAGDISPSSFKLWGPGTLVTVSS VL: DIVMTQTPASVEAAVGGTVTINCQASQSISTALAWYQQKPGQPPKLLIYTASKVASGVPSRFSGSGSGTQFTLTISDLECADAATYYCQNYYYSSSSITFGGGTEVVVK | 1.68 | 54.1 |
| 98G10-H-9 (antibody, V domains shown, also called 98G10 W34H, Y112L (VH)) VH: QEQLEESGGDLVKPEGSLTLTCTASGFSFSASYHICWVRQAPGKGLEWIACIYGGSSGSAYYASWAKGRFTISKTSSTTVTLQMTSLTAADTATYFCARAGYYNYGSAGDILPSSFKLWGPGTLVTVSS VL: DIVMTQTPASVEAAVGGTVTINCQASQSISTALAWYQQKPGQPPKLLIYTASKVASGVPSRFSGSGSGTQFTLTISDLECADAATYYCQNYYYSSSSITFGGGTEVVVK | 0.311 | 10 |
| 98G10-H-2 (antibody, V domains shown, also called 98G10 W34Y (VH)) VH: QEQLEESGGDLVKPEGSLTLTCTASGFSFSASYYICWVRQAPGKGLEWIACIYGGSSGSAYYASWAKGRFTISKTSSTTVTLQMTSLTAADTATYFCARAGYYNYGSAGDIYPSSFKLWGPGTLVTVSS VL: DIVMTQTPASVEAAVGGTVTINCQASQSISTALAWYQQKPGQPPKLLIYTASKVASGVPSRFSGSGSGTQFTLTISDLECADAATYYCQNYYYSSSSITFGGGTEVVVK | 0.507 | 16.4 |
| 98G10-H-4 (antibody, V domains shown, also called 98G10 Y112S (VH)) VH: QEQLEESGGDLVKPEGSLTLTCTASGFSFSASYWICWVRQAPGKGLEWIACIYGGSSGSAYYASWAKGRFTISKTSSTTVTLQMTSLTAADTATYFCARAGYYNYGSAGDISPSSFKLWGPGTLVTVSS VL: DIVMTQTPASVEAAVGGTVTINCQASQSISTALAWYQQKPGQPPKLLIYTASKVASGVPSRFSGSGSGTQFTLTISDLECADAATYYCQNYYYSSSSITFGGGTEVVVK | 0.082 | 2.65 |
| 98G10-H-8 (antibody, V domains shown, also called 98G10 W34D, Y112R (VH)) VH: QEQLEESGGDLVKPEGSLTLTCTASGFSFSASYDICWVRQAPGKGLEWIACIYGGSSGSAYYASWAKGRFTISKTSSTTVTLQMTSLTAADTATYFCARAGYYNYGSAGDIRPSSFKLWGPGTLVTVSS VL: DIVMTQTPASVEAAVGGTVTINCQASQSISTALAWYQQKPGQPPKLLIYTASKVASGVPSRFSGSGSGTQFTLTISDLECADAATYYCQNYYYSSSSITFGGGTEVVVK | 1.59 | 51.3 |
| 98G10-H-3 (antibody, V domains shown, also called 98G10 Y112R (VH)) VH: QEQLEESGGDLVKPEGSLTLTCTASGFSFSASYWICWVRQAPGKGLEWIACIYGGSSGSAYYASWAKGRFTISKTSSTTVTLQMTSLTAADTATYFCARAGYYNYGSAGDIRPSSFKLWGPGTLVTVSS VL: DIVMTQTPASVEAAVGGTVTINCQASQSISTALAWYQQKPGQPPKLLIYTASKVASGVPSRFSGSGSGTQFTLTISDLECADAATYYCQNYYYSSSSITFGGGTEVVVK | 0.028 | 0.9 |

Source: patent EP4682166A1 (Guangzhou Enmai Biotechnology Co., Ltd, dated 2026)
